B1: FsqB (fumisoquin biosynthesis gene B product), flavoprotein of the amine oxidase family (enzyme, Aspergillus fumigatus)
chain: MSIPNSFIIVGSGVFGLSLAYALSLDDRFADKKIILVDRWNFEPPNATGSVHNPAAANADTSRVIRRDYPHGPYASLALEAMKHWRGKFGENNRYVNQRLLFSGEGSSLTTPPKALETVNYIKKAYAISCELTPGGRDAVQVLDSLDEVRAFLGNTPSHPPHLPVNKDPAARDLRGYVSNDCGWADAGASIEWLRQEVLRLGRVECVVGEVESLVYSDDQRAVKGVKLVDGKVLTAELTVIAAGARSSHILGIPKLCDVYSEFVAYIQLTKEEADELRRRQWPILVNCHRGVFAVGPDHDNCLKFGHFSYSGIVDVLREASIQVPTRPDGWEAQQKYWSDPRFAFGGEVKVSALGDVDDYENPAAQRALADYRLFLLELLGPTGLQGVDTLGLDQSDNLLNNIANRPFTRVRKCWYNDTPALDFVVDYHPSYGKTLFVATGGCDHAFKFLPIIGEKTLALILRNRGDSAVSLPAGVEPSLEELSELWRFPVELLQDN
modifications: FAD covalently bound through its 8alpha-methyl group to Cys-414
notes: FsqB of Aspergillus fumigatus, gene Afu6g03440, codon-optimized synthetic gene in pET21a; the domains described in the structure span residues 1-496; Molecular mass printed as 55 kDa; Dimer generated by a crystallographic 2-fold axis; one chain in the asymmetric unit; also called WT FsqB; Afu6g03440

Experiments:
[1] = system: CN[C@@H](Cc1ccc(O)c(O)c1)C(=O)O; test: steady-state oxygen depletion, oxygen sensor; type: biochemical, Aspergillus fumigatus; conditions: pH 7.6, 25 °C, 100 mM Tris/HCl, 150 mM NaCl, air-saturated (O2 co-substrate)
Text: (§1) steady-state oxygen depletion, oxygen sensor on FsqB

[2] = system: CN[C@@H](Cc1ccc(O)cc1)C(=O)O; test: steady-state oxygen depletion, oxygen sensor; type: biochemical, Aspergillus fumigatus; conditions: pH 7.6, 25 °C, 100 mM Tris/HCl, 150 mM NaCl, air-saturated (O2 co-substrate)
Text: as §1

[3] = system: CNC(Cc1ccc(O)c(O)c1)C(=O)O; test: steady-state oxygen depletion, oxygen sensor; type: biochemical, Aspergillus fumigatus; conditions: pH 7.6, 25 °C, 100 mM Tris/HCl, 150 mM NaCl, air-saturated (O2 co-substrate)
Text: as §1

CNC(Cc1cccc(O)c1)C(=O)O = test: steady-state oxygen depletion, oxygen sensor; type: biochemical, Aspergillus fumigatus; conditions: pH 7.6, 25 °C, 100 mM Tris/HCl, 150 mM NaCl, air-saturated (O2 co-substrate), error ± 0.6
Text: as §1

[4] = target: the molecule itself; test: crystal structure; hexagonal crystals (P6522), one chain in the asymmetric unit; dimer with a symmetry-related molecule by a crystallographic 2-fold axis, analysed with the EBI-Pisa server; 2.6 A

Molecule	Km [1]	kcat [1]	kcat/Km [1]	Km [2]	kcat [2]	kcat/Km [2]	Km [3]	kcat [3]	kcat/Km [3]	Km (CNC(Cc1cccc(O)c1)C(=O)O)	kcat (CNC(Cc1cccc(O)c1)C(=O)O)	kcat/Km (CNC(Cc1cccc(O)c1)C(=O)O)	binding result [4]
FsqB (Aspergillus fumigatus Af293)	0.27 ± 0.02 mM	8.2 ± 0.2 s⁻¹	30000 ± 3000 M⁻¹ s⁻¹	2.1 ± 0.2 mM	3.9 ± 0.2 s⁻¹	1910 ± 20 M⁻¹ s⁻¹	0.16 ± 0.01 mM	8.5 ± 0.1 s⁻¹	53000 ± 4000 M⁻¹ s⁻¹	1.6 ± 0.2 mM	3.5 ± 0.1 s⁻¹	2180 ± 40 M⁻¹ s⁻¹	–
B1	–	–	–	–	–	–	–	–	–	–	–	–	binds

From article PMC6222107 (The Journal of Biological Chemistry, 2018)
